We go through two variants from article PMC7729563, “Phospho-Mutant Activity Assays Provide Evidence for the Negative Regulation of Transcriptional Regulator PRE1 by Phosphorylation” (International Journal of Molecular Sciences, 2020).

To fix the notation:
B1: AD-PRE1 (PACLOBUTRAZOL-RESISTANT-1 fused to GAL4AD) [Arabidopsis thaliana] / BD-IBH1 (ILI1 BINDING bHLH PROTEIN1 fused to GAL4BD) [Arabidopsis thaliana] (parent complex)
chain 1: MSNRRSRQSSSAPRISDNQMIDLVSKLRQILPEIGQRRRSDKASASKVLQETCNYIRNLNREVDNLSERLSQLLESVDEDSPEAAVIRSLLM
chain 2: MASADKLINTDVPEKDVFAFHFLQSLSNLRKQNPFDTPDQKNYRVRKIKKAAYVSMARAAGGSSRLWSRALLRRADKDDNKIVRFSRRKWKISSKRRRSNQRAPVVEEAAERLRNLVPGGGGMETSKLMEETAHYIKCLSMQVKVMQCLVDGLSPK

Variants of B1 are the subject of one assay. Briefly: pull-down, band quantification normalized to input; parent: 0.32; read off a plot.
As to chain 1 S67E, the response is around 0.13 Pull-down/Input.
The same measure, in the same setting: the result for chain 1 S67A reads around 0.23 Pull-down/Input.

A further assay covers variants of B1. As to the kind of experiment: yeast two-hybrid, quantitative β-galactosidase assay; parent: 3.9; read off a plot.
Turning to chain 1 S67E, the response is ~2.3 β-gal units.
Same read-out and setting: in the case of chain 1 S67A it was ~3.6 β-gal units.

Variants of B1 are the subject of a further assay. Briefly: Ratiometric-Bimolecular Fluorescence Complementation (rBiFC) in tobacco; n = 50 images; parent: 0.42; read off a plot.
For the variant chain 1 S67E, the response was around 0.16 YFP/RFP.
